Laboratory results published in US20080220446.

T1: recombinant human β2-glycoprotein I (insect cells), P02749
T1 chain: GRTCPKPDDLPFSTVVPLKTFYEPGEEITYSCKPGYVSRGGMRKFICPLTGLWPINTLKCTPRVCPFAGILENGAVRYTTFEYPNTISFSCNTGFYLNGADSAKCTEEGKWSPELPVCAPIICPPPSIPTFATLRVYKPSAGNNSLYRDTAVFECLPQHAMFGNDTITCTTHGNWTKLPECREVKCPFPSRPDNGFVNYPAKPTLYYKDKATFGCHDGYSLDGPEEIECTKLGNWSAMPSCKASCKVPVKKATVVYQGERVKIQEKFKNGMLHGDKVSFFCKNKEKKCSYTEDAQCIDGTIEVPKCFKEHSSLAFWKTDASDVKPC

T2: β2GPI exposed to cardiolipin (CL), P02749
T2 chain: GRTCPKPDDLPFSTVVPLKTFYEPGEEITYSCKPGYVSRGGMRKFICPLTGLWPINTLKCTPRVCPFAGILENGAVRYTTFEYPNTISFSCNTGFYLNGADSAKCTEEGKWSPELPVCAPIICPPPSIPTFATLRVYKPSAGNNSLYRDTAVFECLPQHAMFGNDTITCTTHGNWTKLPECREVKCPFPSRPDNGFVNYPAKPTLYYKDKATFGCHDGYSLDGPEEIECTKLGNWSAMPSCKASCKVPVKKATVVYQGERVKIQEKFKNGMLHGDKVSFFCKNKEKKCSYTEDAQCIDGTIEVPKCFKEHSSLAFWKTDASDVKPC

T3: β2GPI purified from fresh human plasma, P02749
T3 chain: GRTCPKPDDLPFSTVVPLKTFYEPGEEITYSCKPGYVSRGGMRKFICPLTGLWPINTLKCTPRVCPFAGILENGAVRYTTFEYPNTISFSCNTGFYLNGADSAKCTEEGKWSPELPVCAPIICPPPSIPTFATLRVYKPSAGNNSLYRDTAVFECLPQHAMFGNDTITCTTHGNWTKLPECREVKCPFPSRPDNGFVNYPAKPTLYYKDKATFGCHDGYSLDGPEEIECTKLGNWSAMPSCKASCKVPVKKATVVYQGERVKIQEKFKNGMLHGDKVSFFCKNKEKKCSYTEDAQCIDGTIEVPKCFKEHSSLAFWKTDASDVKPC

T4: alkyl-β2gpi (reduced and alkylated β2-glycoprotein I), P02749
T4 chain: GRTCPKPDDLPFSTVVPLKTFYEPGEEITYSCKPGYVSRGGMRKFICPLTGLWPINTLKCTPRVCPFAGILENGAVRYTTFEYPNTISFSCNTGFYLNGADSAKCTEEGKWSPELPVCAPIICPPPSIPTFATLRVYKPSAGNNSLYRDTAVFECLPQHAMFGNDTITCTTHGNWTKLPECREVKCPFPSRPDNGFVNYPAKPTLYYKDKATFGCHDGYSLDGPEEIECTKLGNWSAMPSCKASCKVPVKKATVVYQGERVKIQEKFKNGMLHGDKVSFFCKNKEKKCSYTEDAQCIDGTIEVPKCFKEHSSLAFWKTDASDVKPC


How the values were obtained:
[1] = biological target: human coagulation factor VIII (FVIII) (Aafact), P00451
[2] = biological target: amyloid γ-globulins (denatured human γ-globulins)
[3] = biological target: native murine serum albumin (nMSA), P07724
[4] = biological target: endostatin (EntreMed, Inc.), P39060
[5] = biological target: T1, recombinant human β2-glycoprotein I …
[6] = biological target: human glucagon (Glucagen), freshly dissolved, P01275
[7] = biological target: heat/acid-denatured human glucagon, P01275
[8] = biological target: T2, β2GPI exposed to cardiolipin (CL), …
[9] = biological target: T3, β2GPI purified from fresh human plasma, …
[10] = biological target: T4, alkyl-β2gpi (reduced and alkylated …)
[11] = biological target: human modified gelatin (Gelofusine)

Chain of human glucagon (Glucagen), freshly dissolved, P01275 (P01275 53-81): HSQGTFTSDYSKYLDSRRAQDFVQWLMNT
Chain of endostatin (EntreMed, Inc.), P39060 (P39060 whole entry, looked up): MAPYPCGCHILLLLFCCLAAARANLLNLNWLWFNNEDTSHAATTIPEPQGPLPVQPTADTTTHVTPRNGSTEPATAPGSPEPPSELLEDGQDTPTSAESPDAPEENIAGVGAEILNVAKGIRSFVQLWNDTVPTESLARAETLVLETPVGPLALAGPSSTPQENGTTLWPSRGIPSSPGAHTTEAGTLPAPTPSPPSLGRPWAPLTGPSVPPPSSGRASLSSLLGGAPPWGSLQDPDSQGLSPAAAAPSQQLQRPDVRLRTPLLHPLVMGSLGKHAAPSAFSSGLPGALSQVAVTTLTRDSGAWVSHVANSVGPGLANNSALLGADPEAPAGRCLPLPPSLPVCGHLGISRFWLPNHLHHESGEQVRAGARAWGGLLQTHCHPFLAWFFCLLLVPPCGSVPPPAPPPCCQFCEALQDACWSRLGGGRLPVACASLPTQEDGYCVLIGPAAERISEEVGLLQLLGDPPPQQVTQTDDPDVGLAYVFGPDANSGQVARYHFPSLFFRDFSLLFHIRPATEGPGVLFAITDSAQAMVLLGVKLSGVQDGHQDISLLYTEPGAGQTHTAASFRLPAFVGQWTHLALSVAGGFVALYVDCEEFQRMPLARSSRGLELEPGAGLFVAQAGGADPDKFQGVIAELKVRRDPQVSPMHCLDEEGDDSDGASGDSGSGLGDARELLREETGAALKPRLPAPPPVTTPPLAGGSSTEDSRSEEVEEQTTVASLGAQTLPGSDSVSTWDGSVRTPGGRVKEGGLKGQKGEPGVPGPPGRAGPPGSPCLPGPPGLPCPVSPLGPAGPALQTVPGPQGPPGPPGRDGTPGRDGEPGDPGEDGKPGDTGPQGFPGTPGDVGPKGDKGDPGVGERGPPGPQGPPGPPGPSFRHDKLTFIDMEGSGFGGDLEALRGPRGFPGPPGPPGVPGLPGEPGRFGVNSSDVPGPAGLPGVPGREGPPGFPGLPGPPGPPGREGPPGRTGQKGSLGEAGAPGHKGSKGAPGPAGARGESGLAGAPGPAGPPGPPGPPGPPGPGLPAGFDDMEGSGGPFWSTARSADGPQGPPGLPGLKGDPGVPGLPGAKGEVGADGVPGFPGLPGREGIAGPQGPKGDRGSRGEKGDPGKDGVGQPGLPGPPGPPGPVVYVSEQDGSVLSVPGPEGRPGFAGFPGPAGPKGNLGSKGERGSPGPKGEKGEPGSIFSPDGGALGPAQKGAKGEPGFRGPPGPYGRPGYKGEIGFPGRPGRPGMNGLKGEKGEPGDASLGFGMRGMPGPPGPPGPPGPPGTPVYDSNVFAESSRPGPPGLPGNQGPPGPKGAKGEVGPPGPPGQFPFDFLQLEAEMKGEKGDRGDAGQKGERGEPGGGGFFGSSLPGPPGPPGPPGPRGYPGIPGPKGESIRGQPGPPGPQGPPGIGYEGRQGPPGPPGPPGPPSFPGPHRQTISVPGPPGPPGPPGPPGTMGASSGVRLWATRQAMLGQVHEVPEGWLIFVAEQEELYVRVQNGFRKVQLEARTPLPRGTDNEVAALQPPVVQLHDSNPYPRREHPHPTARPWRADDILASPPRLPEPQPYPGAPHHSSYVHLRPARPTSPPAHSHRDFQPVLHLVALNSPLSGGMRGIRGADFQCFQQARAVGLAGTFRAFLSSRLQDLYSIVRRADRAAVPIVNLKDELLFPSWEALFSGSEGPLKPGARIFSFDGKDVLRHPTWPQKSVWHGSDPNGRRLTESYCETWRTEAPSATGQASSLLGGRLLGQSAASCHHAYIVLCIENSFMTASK
Chain of native murine serum albumin (nMSA), P07724 (P07724 25-608): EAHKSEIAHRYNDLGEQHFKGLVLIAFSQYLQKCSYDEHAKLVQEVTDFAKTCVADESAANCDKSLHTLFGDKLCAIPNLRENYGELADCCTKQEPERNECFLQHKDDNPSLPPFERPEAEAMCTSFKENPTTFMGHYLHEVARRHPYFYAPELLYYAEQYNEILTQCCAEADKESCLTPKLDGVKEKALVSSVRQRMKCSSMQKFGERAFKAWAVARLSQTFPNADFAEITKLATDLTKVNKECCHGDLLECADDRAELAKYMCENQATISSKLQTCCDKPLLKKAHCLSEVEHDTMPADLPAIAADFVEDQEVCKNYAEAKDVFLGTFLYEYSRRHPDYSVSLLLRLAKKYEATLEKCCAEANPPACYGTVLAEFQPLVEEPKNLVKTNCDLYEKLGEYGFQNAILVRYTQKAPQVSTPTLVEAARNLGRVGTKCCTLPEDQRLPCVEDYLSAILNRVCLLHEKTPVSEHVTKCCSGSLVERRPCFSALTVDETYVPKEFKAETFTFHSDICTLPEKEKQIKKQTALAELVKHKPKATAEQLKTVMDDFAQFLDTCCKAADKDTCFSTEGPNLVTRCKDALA
Chain of human coagulation factor VIII (FVIII) (Aafact), P00451 (P00451 whole entry, looked up): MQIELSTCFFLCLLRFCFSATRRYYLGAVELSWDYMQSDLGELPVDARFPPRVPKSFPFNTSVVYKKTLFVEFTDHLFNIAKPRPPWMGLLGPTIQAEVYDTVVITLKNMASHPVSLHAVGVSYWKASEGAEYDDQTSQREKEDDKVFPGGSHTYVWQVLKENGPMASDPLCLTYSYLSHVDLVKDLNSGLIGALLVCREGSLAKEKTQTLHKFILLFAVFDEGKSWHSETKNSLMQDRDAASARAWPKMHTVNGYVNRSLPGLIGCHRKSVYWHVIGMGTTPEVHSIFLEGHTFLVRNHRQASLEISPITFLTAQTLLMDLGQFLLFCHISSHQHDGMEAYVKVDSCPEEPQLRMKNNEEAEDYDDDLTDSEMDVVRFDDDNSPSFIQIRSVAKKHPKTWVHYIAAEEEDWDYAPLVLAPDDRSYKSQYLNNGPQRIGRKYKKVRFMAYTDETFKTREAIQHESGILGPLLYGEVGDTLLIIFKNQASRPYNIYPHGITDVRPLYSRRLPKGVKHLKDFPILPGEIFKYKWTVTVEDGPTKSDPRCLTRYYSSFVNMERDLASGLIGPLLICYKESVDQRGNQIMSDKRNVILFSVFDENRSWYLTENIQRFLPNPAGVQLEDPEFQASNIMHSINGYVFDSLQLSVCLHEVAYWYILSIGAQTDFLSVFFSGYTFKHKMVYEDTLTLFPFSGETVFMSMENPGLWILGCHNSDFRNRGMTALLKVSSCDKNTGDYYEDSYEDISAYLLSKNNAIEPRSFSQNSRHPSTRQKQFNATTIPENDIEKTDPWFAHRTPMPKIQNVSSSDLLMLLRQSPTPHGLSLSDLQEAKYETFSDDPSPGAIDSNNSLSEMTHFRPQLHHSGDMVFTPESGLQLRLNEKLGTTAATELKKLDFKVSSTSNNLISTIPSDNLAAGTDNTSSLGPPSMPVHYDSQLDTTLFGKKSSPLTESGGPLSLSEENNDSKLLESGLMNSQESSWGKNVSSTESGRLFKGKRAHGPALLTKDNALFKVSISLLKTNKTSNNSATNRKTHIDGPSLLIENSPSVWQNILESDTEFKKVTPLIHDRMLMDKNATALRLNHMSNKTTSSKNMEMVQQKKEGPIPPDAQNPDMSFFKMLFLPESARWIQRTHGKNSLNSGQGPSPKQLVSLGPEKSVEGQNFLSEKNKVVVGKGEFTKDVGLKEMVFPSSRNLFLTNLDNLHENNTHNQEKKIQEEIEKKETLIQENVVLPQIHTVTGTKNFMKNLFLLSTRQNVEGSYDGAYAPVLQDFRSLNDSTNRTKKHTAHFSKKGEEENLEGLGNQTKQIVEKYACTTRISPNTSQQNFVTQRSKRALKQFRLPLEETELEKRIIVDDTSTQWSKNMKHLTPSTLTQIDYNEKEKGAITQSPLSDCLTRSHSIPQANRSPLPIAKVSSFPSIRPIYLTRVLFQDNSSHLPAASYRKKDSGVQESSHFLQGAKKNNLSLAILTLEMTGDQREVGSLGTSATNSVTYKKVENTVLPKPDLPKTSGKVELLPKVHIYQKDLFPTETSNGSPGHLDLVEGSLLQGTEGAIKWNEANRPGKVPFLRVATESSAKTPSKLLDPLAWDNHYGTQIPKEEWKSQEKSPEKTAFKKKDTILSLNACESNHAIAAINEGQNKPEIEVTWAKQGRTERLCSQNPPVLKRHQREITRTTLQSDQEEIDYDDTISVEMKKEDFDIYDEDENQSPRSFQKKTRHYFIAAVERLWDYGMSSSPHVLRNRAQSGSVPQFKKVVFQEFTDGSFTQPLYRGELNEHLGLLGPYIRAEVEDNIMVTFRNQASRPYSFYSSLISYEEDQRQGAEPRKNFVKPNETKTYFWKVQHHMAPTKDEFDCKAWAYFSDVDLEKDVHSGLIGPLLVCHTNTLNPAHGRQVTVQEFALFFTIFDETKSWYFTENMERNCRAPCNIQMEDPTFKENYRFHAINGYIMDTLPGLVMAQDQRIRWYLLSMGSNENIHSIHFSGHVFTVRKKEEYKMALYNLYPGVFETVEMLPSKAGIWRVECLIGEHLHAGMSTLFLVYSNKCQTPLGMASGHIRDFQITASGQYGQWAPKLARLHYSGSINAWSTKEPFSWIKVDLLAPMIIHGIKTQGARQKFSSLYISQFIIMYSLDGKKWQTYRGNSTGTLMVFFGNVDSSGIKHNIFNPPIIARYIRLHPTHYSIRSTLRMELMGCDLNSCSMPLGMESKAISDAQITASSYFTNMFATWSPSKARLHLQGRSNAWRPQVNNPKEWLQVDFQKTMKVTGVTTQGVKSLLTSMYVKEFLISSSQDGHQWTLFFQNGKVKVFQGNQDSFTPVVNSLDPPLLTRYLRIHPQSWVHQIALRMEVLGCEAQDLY

Protein | tPA activation, Max. Activation (%) (tPA-dependent plasminogen activation, % of standardized positive control) [1] | tPA-mediated activation of Plg (chromogenic Plg-activation assay) [2] | stimulation of tPA activation [3] | tPA activating properties (Plg-activation assay) [4] | tPA-mediated conversion of Plg to Pls (substrate S-2251) [5] | tPA activating potential [6] | tPA activation, Max. Activation (%) (tPA-dependent plasminogen activation, % of standardized positive control) [6] | tPA activation [7] | generation of plasmin from tPA/plasminogen [8] | tPA-mediated conversion of Plg to Pls (substrate S-2251) [9] | ability to activate tPA/plasminogen [10] | factor XII activation (chromogenic kallikrein assay) [11]
tissue-type plasminogen activator (tPA) (protein) SYQVICRDEKTQMIYQQHQSWLRPVLRSNRVEYCWCNSGRAQCHSVPVKSCSEPRCFNGGTCQQALYFSDFVCQCPEGFAGKCCEIDTRATCYEDQGISYRGTWSTAESGAECTNWNSSALAQKPYSGRRPDAIRLGLGNHNYCRNPDRDSKPWCYVFKAGKYSSEFCSTPACSEGNSDCYFGNGSAYRGTHSLTESGASCLPWNSMILIGKVYTAQNPSAQALGLGKHNYCRNPDGDAKPWCHVLKNRRLTWEYCDVPSCSTCGLRQYSQPQFRIKGGLFADIASHPWQAAIFAKHRRSPGERFLCGGILISSCWILSAAHCFQERFPPHHLTVILGRTYRVVPGEEEQKFEVEKYIVHKEFDDDTYDNDIALLQLKSDSSRCAQESSVVRTVCLPPADLQLPDWTECELSGYGKHEALSPFYSERLKEAHVRLYPSSRCTSQHLLNRTVTDNMLCAGDTRSGGPQANLHDACQGDSGGPLVCLNDGRMTLVGIISWGLGCGQKDVPGVYTKVTNYLDWIRDNMRP | 4.22 | Centrifugation had no effect on the stimulatory effect of Hb-AGE and amyloid γ-globulins on tPA-mediated activation of Plg | also native MSA enhanced ThT fluorescence to some extent, but this was not reflected by stimulation of tPA activation | the absence of tPA activating properties in 100 µg ml^-1 endostatin | Recombinant β2GPI, but not β2GPI purified from fresh plasma stimulate tPA-mediated conversion of Plg to Pls | at high glucagon concentration, also native glucagon had some tPA activating potential | 11.2 | a potent activator of tPA was obtained | Generation of plasmin from tPA/plasminogen is accelerated when β2gpi is exposed to cardiolipin (CL-β2gpi) | Recombinant β2GPI, but not β2GPI purified from fresh plasma stimulate tPA-mediated conversion of Plg to Pls | Alkylation of β2gpi results in amyloid-like properties when the ability to activate tPA/plasminogen is considered | –
factor XII (purified human factor XII from plasma) (protein) IPPWEAPKEHKYKAEEHTVVLTVTGEPCHFPFQYHRQLYHKCTHKGRPGPQPWCATTPNFDQDQRWGYCLEPKKVKDHCSKHSPCQKGGTCVNMPSGPHCLCPQHLTGNHCQKEKCFEPQLLRFFHKNEIWYRTEQAAVARCQCKGPDAHCQRLASQACRTNPCLHGGRCLEVEGHRLCHCPVGYTGAFCDVDTKASCYDGRGLSYRGLARTTLSGAPCQPWASEATYRNVTAEQARNWGLGGHAFCRNPDNDIRPWCFVLNRDRLSWEYCDLAQCQTPTQAAPPTPVSPRLHVPLMPAQPAPPKPQPTTRTPPQSQTPGALPAKREQPPSLTRNGPLSCGQRLRKSLSSMTRVVGGLVALRGAHPYIAALYWGHSFCAGSLIAPCWVLTAAHCLQDRPAPEDLTVVLGQERRNHSCEPCQTLAVRSYRLHEAFSPVSYQHDLALLRLQEDADGSCALLSPYVQPVCLPSGAARPSETTLCQVAGWGHQFEGAEEYASFLQEAQVPFLSLERCSAPDVHGSSILPGMLCAGFLEGGTDACQGDSGGPLVCEDQAAERRLTLQGIISWGSGCGDRNKPGVYTDVAYYLAWIREHTVS | – | – | – | – | – | – | – | – | – | – | – | Only gelatin kept at 37 °C activated factor XII
